The conditions of this data set: Equus caballus, Thermal, CD, Potassium citrate 10 mM, KCl 0.1 mM, reversible: yes, whole UniProt chain shown.

B1: Beta-lactoglobulin-1 wild type, P02758 (protein)
chain: MKCLLLALGLALMCGIQATNIPQTMQDLDLQEVAGKWHSVAMAASDISLLDSESAPLRVYIEKLRPTPEDNLEIILREGENKGCAEKKIFAEKTESPAEFKINYLDEDTVFALDTDYKNYLFLCMKNAATPGQSLVCQYLARTQMVDEEIMEKFRRALQPLPGRVQIVPDLTRMAERCRI
In general, Tm refers to the temperature at the midpoint of the melting transition. With B1, the midpoint of thermal melting (Tm) worked out at 47.5 °C (pH 3.65); 49.4 °C (pH 3.71); 58.3 °C (pH 4); 59.7 °C (pH 4.2); 61.4 °C (pH 4.22); 57.3 °C (pH 4.23). The “unfolding enthalpy (van 't Hoff)” value worked out at 158 kJ/mol (pH 3.65); 185 kJ/mol (pH 3.71); 215 kJ/mol (pH 4); 239 kJ/mol (pH 4.2); 242 kJ/mol (pH 4.22); 220 kJ/mol (pH 4.23).

The record behind these values is FireProtDB (doi:10.1016/j.jmb.2005.05.003).
